Results published in patent publication US20240325562A1, “INTERNALIZING BINDING MOLECULES” (LinXis B.V., priority 2020, published 2024).

Assays:
hPDGFRB = hPDGFRB (Homo sapiens, UniProt P09619); assay: Competition assays of PDGFRB VHHs on hPDGFRB; type: binding; settings: for epitope group (mutual competition): VHHs from libraries 1 and 2, four main groups
Procedure: (§1) Biparatopic VHH constructs contain two VHH which bind to a different epitope, i.e. which are non-competitive binders. To identify (a) pair(s) of non-competitive binders, competition assays were performed. In the example shown, an Alexa fluor-conjugate of the high affine VHH 13F11 was used as the reporter VHH (13F11-A647, see example 10.2). In the assay, a non-saturating amount (10 nM) of 13F11-A647 was incubated with immobilized hIGF2R-ECD in the presence or absence of 250 nM unconjugated competitor VHH to allow competition to take place.
Similar as to in example 6.1, competition assays were performed to identify unique hPDGFRB- or rPDGFRB binders. Across 10 PDGFRB-binding VHHs obtained from libraries 1 and 2 (e.g. the VHH raised against hPDGFRB), four main groups were identified being first SP01P, SP02P, SP07P and SP13P, second SP05P, SP08P and SP10P, third SP12P and SP20P and finally SP14P. All VHH within each of the first three groups mutually competed.
To evaluate whether the obtained VHHs would qualify as building blocks for multivalent VHH constructs that bind hPDGFRB as well as rPDGFRB (e.g. ‘species cross-reactive’ VHH constructs), competition assays were performed using the most promising VHHs SP02 (raised against hPDGFRB) and SP26P (raised against rPDGFRB).

hIGF2R-ECD = molecular target: T1, hIGF2R-ECD (Homo sapiens, UniProt P11717); assay: Competition assay with 13F11-A647 as reporter VHH on immobilized hIGF2R-ECD; type: binding; settings: for competition with reporter VHH 13F11-A647: 10 nM 13F11-A647, 250 nM unconjugated competitor VHH; for less fluorescence intensity (decrease in binding of labelled 13F11): 10 nM labelled 13F11, 250 nM unlabelled competitor VHH
T1 construct: immobilized recombinant human extracellular domain of IGF2R (hIGF2R-ECD) was used
Procedure: With the term “compete” is meant that in a competition assay, such as for instance described in Example 6 of the present invention, the addition of a binding molecule induces a significant decrease in binding of a given VHH, i.e., the VHH to which the competing is determined. “Significant” in this respect is preferably a decrease of >5%, preferably >10% when 250 nM of a binding molecule is added to 10 nM of a fluorescence labelled VHH in an ELISA. […] The same test conditions and threshold apply to a binding molecule directed to PDGFRB when determining whether a binding molecule competes with a given VHH.
as §1

hPDGFRB, sequence (P09619 33-532 limits assumed): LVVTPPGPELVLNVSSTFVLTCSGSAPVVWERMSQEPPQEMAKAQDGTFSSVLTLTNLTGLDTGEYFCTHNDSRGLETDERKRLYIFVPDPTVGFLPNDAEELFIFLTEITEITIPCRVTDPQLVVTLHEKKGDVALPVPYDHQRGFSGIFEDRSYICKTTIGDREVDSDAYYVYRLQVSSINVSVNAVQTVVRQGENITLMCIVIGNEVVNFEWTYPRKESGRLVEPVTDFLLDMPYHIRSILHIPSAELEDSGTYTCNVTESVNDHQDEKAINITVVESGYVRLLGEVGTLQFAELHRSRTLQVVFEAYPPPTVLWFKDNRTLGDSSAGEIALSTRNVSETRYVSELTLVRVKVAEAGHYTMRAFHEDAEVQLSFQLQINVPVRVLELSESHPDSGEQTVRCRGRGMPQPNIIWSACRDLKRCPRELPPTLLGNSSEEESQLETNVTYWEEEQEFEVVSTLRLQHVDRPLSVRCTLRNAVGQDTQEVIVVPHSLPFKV

Molecule	epitope group (mutual competition) (hPDGFRB)	competition with reporter VHH 13F11-A647 (hIGF2R-ECD)	competition between SP02 and SP26P (hPDGFRB; IRDye800-conjugated SP26P as reporter)	less fluorescence intensity (decrease in binding of labelled 13F11) (hIGF2R-ECD)
13E8: VHH single domain antibody targeting IGF2R, SEQ ID NO: 249 (protein) VHH: EVQLVESGGGLVQAGGSLRLSCAASRSISPMGWYRQAPGKQRELVAIMPSSGPPIYADSVQGRFTISRDNAKNTVYLQMNSLKPEDTAVYYCNVGGGYWGQGTQVTVSS		did not compete with 13F11		less than 5%
SP10P: VHH single domain antibody targeting PDGFRB, SEQ ID NO: 49 (protein) VHH: EVQLVESGGGLVQAGGSLRLSCAASGRTFNGYAMGWFRQAPGKERDFVAAITWSYGYTHYAESVKGRFSISRDSANNMVYLEMNSLKPEDTAVYYCAADPKASRFRTLRRYDYWGQGTQVTVSS	second			
SP08P: VHH single domain antibody targeting PDGFRB, SEQ ID NO: 41 (protein) VHH: EVQLVESGGGLVQAGGSLRLSCAASGRTFNGYAMAWFRQAPGKERDFVASITWSYGYTYYADSAQGRFTISRDSAKNTVYLEMNSLKPEDTAVYYCAADPKASRFRILRQYAHWGQGTQVTVSS	second			
13C11: VHH single domain antibody targeting IGF2R, SEQ ID NO: 297 (protein) VHH: EVQLVESGGGLVQAGGSLRLSCAASGLTFSSYTMAWYRQAPGKEREVVAAISSGDSIYHEGSVQGRFIISRDNAKNTVYLQMNSLKAEDTAVYYCRANGPGTYWGQGTQVTVSS		competed with 13F11		substantially more decrease in fluorescence intensity
13G10: VHH single domain antibody targeting IGF2R, SEQ ID NO: 305 (protein) VHH: EVQLVESGGGLVQAGGSLRLSCAASGLTFSSYTMAWYRQAPGKEREVVAAISSGDSIYHEDSVQGRFIISRDNAKNTVYLQMNSLKAEDTAVYYCRANGPGTYWGQGTQVTVSS		competed with 13F11		substantially more decrease in fluorescence intensity
13A8: VHH single domain antibody targeting IGF2R, SEQ ID NO: 257 (protein) VHH: EVQLVESGGGLVPAGGSLRLSCAASGRTFSNYAMGWFRQAPGKERKFVATISWSGGVTYYADSVKGRFTISRDNAKNTVYLLMNSLKPEDTAVYYCAAKRDSSSYDHRRYDYWGQGTQVTVSS		competed with 13F11		substantially more decrease in fluorescence intensity
SP13P: VHH single domain antibody targeting PDGFRB, SEQ ID NO: 73 (protein) VHH: EVQLVESGGGLVQPGGSLRLSCAASESIFSINYMAWYRQAPGKQRELVAFSIDGSSTNYVDSVRGRFTASRDNAENTLYLQMNSLKPEDTAVYYCYAQGNTWAAGVWGQGTQVTVSS	first			

Now from value to molecule, other results behind:

epitope group (mutual competition) (hPDGFRB)	competition with reporter VHH 13F11-A647 (hIGF2R-ECD)	competition between SP02 and SP26P (hPDGFRB; IRDye800-conjugated SP26P as reporter)	Molecule	less fluorescence intensity (decrease in binding of labelled 13F11) (hIGF2R-ECD)
second			SP05P: VHH single domain antibody targeting PDGFRB, SEQ ID NO: 25 (protein) VHH: EVQLVESGGGLVQAGGSLRLSCAASGRTSFSGYAMAWFRQAPGKERDFVASITWSYGYTYYTDSAQGRFTISRDSAKNTVYLEMNSLKPEDTAVYYCAADPKASRFRILREYAYWGQGTQVTVSS	
first			SP01P: VHH single domain antibody targeting PDGFRB, SEQ ID NO: 1 (protein) VHH: EVQLVESGGGLAQAGGSLRLSCVASGNIDSANGMAWYRQAPGKQRELVAHITSGTSYYVASVEGRFTISRANAKDTWYLQMNSLKPEDTGVYYCFPIGLSAHWSQGTQVTVSS	
first		did not compete	SP02P: VHH single domain antibody targeting PDGFRB, SEQ ID NO: 9 (protein) VHH: EVQLVESGGGLVQAGGSLRLSCAASESISSIEQMGWFRQAPGKQRALVAINTYGGRTVYTNSVEGRFTMSRDSAKNMVYLQMTSLEPEDTAVYYCYAQTTAWRGGVWGQGTQVTVSS	
	competed with 13F11		13A12: VHH single domain antibody targeting IGF2R, SEQ ID NO: 289 (protein) VHH: EVQLVESGGGLVQAGGSLRLSCAASGIIFGANTVGWYRQVPGKERDVVASITSGDSTYYGDSVRGRFTISRDNAKNTMYLQMNSLKPEDTAIYYCRARTTDGSYWGQGTQVTVS	substantially more decrease in fluorescence intensity
lone VHH			SP14P: VHH single domain antibody targeting PDGFRB, SEQ ID NO: 81 (protein) VHH: EVQLVESGGGLVQAGDSLRLSCVVSGLTFSRYGMGWFRQATGKEREFVGGISVGSSGTMYPNSVKGRFTISRDNAKSTVYLQMNSLKPEDTAVYFCAAIDQGSFVQQRDYRYWGQGTQVTVSS	
first			SP07P: VHH single domain antibody targeting PDGFRB, SEQ ID NO: 33 (protein) VHH: EVQLVESGGGSVQTGGSLRLSCAASGRSFSTYAMAWFRQAPGKEREFVAAINRRATDTVYADSAKGRFIISRDNDKNTVYLQMDSLKTEDTAVYYCAAAKNAYDWRWDRLRDRDYWGQRGQGTQVTVSS	
third			SP12P: VHH single domain antibody targeting PDGFRB, SEQ ID NO: 65 (protein) VHH: EVQLVESGGGLVQAGGSLRLSCVISGRTSPTYPMGWFRQSPGNEREFVASINWSGGWRNYADSVKGRFTISRDDAKNTVYLQMNSLKPEDTAVYYCARGQYSSGTPVYAHEYAYWGQGTQVTVSS	
third			SP20P: VHH single domain antibody targeting PDGFRB, SEQ ID NO: 113 (protein) VHH: EVQLVESGGGLVQAGGSLRLSCVISGRTSPTYPMGWFRQSPGNEREFVASINWSGGWRNYADSVKDRFTISRDDAKNTVYLQMNSLKPEDTAVYYCARGQYSSGTPVYAHEYAYWGQGTQVTVSS	
